± gives the uncertainty stated by the source.
B1: Probable E3 ubiquitin-protein ligase MID2, residues 191 to 235; numbered along this chain, Q9UJV3 (parent)
chain: RGITCLDHENEKVNMYCVSDDQLICALCKLVGRHRDHQVASLNDR

Variants of: B1
Experiment: abundance fitness (aPCA) (normalised: wild type 0, dead -1); higher = more abundant; growth selection in yeast, the domain comes from the species named
Conditions: Homo sapiens

Variant	abundance fitness
RGINCLDHENEKVNMYCVSDDQLICALCKLVGRHRDHQVASLNDR [T4N]	-0.01 ± 0.11
RGIVCLDHENEKVNMYCVSDDQLICALCKLVGRHRDHQVASLNDR [T4V]	-0.235 ± 0.051
RGIECLDHENEKVNMYCVSDDQLICALCKLVGRHRDHQVASLNDR [T4E]	-0.209 ± 0.049
RGIHCLDHENEKVNMYCVSDDQLICALCKLVGRHRDHQVASLNDR [T4H]	-0.071 ± 0.077
RGIDCLDHENEKVNMYCVSDDQLICALCKLVGRHRDHQVASLNDR [T4D]	-0.16 ± 0.1
RGIQCLDHENEKVNMYCVSDDQLICALCKLVGRHRDHQVASLNDR [T4Q]	-0.257 ± 0.064
RGIGCLDHENEKVNMYCVSDDQLICALCKLVGRHRDHQVASLNDR [T4G]	-0.217 ± 0.045
RGIACLDHENEKVNMYCVSDDQLICALCKLVGRHRDHQVASLNDR [T4A]	-0.238 ± 0.053
RGIWCLDHENEKVNMYCVSDDQLICALCKLVGRHRDHQVASLNDR [T4W]	-0.219 ± 0.061
RGIRCLDHENEKVNMYCVSDDQLICALCKLVGRHRDHQVASLNDR [T4R]	-0.205 ± 0.048
RGICCLDHENEKVNMYCVSDDQLICALCKLVGRHRDHQVASLNDR [T4C]	-0.18 ± 0.092
RGISCLDHENEKVNMYCVSDDQLICALCKLVGRHRDHQVASLNDR [T4S]	-0.105 ± 0.062
RGITCLSHENEKVNMYCVSDDQLICALCKLVGRHRDHQVASLNDR [D7S]	-0.173 ± 0.053
RGITCLIHENEKVNMYCVSDDQLICALCKLVGRHRDHQVASLNDR [D7I]	-0.015 ± 0.089
RGITCLYHENEKVNMYCVSDDQLICALCKLVGRHRDHQVASLNDR [D7Y]	-0.112 ± 0.098
RGITCLCHENEKVNMYCVSDDQLICALCKLVGRHRDHQVASLNDR [D7C]	-0.192 ± 0.071
RGITCLMHENEKVNMYCVSDDQLICALCKLVGRHRDHQVASLNDR [D7M]	-0.239 ± 0.078
RGITCLQHENEKVNMYCVSDDQLICALCKLVGRHRDHQVASLNDR [D7Q]	-0.147 ± 0.084
RGITCLRHENEKVNMYCVSDDQLICALCKLVGRHRDHQVASLNDR [D7R]	-0.238 ± 0.044

Variant	abundance fitness
RGITCLAHENEKVNMYCVSDDQLICALCKLVGRHRDHQVASLNDR [D7A]	-0.128 ± 0.051
RGITCLTHENEKVNMYCVSDDQLICALCKLVGRHRDHQVASLNDR [D7T]	-0.223 ± 0.093
RGITCLFHENEKVNMYCVSDDQLICALCKLVGRHRDHQVASLNDR [D7F]	-0.082 ± 0.27
RGITCLPHENEKVNMYCVSDDQLICALCKLVGRHRDHQVASLNDR [D7P]	-0.55 ± 0.07
RGITCLLHENEKVNMYCVSDDQLICALCKLVGRHRDHQVASLNDR [D7L]	-0.162 ± 0.066
RGITCLHHENEKVNMYCVSDDQLICALCKLVGRHRDHQVASLNDR [D7H]	-0.015 ± 0.11
RGITCLVHENEKVNMYCVSDDQLICALCKLVGRHRDHQVASLNDR [D7V]	-0.17 ± 0.048
RGITCLWHENEKVNMYCVSDDQLICALCKLVGRHRDHQVASLNDR [D7W]	-0.294 ± 0.051
RGITCLNHENEKVNMYCVSDDQLICALCKLVGRHRDHQVASLNDR [D7N]	-0.107 ± 0.083
RGITCLGHENEKVNMYCVSDDQLICALCKLVGRHRDHQVASLNDR [D7G]	-0.364 ± 0.046
RGITVLDHENEKVNMYCVSDDQLICALCKLVGRHRDHQVASLNDR [C5V]	-0.589 ± 0.064
RGITLLDHENEKVNMYCVSDDQLICALCKLVGRHRDHQVASLNDR [C5L]	-0.985 ± 0.097
RGITDLDHENEKVNMYCVSDDQLICALCKLVGRHRDHQVASLNDR [C5D]	-0.39 ± 0.076
RGITQLDHENEKVNMYCVSDDQLICALCKLVGRHRDHQVASLNDR [C5Q]	-0.585 ± 0.11
RGITWLDHENEKVNMYCVSDDQLICALCKLVGRHRDHQVASLNDR [C5W]	-0.706 ± 0.066
RGITHLDHENEKVNMYCVSDDQLICALCKLVGRHRDHQVASLNDR [C5H]	-0.555 ± 0.1
RGITELDHENEKVNMYCVSDDQLICALCKLVGRHRDHQVASLNDR [C5E]	-0.307 ± 0.06
RGITNLDHENEKVNMYCVSDDQLICALCKLVGRHRDHQVASLNDR [C5N]	-0.487 ± 0.082
RGITSLDHENEKVNMYCVSDDQLICALCKLVGRHRDHQVASLNDR [C5S]	-0.448 ± 0.062

Variant	abundance fitness
RGITPLDHENEKVNMYCVSDDQLICALCKLVGRHRDHQVASLNDR [C5P]	-0.717 ± 0.099
RGITMLDHENEKVNMYCVSDDQLICALCKLVGRHRDHQVASLNDR [C5M]	-0.462 ± 0.081
RGITFLDHENEKVNMYCVSDDQLICALCKLVGRHRDHQVASLNDR [C5F]	-0.951 ± 0.31
RGITKLDHENEKVNMYCVSDDQLICALCKLVGRHRDHQVASLNDR [C5K]	-0.379 ± 0.097
RGITGLDHENEKVNMYCVSDDQLICALCKLVGRHRDHQVASLNDR [C5G]	-0.461 ± 0.046
RGITCLDLENEKVNMYCVSDDQLICALCKLVGRHRDHQVASLNDR [H8L]	-0.703 ± 0.062
RGITCLDVENEKVNMYCVSDDQLICALCKLVGRHRDHQVASLNDR [H8V]	-0.809 ± 0.062
RGITCLDGENEKVNMYCVSDDQLICALCKLVGRHRDHQVASLNDR [H8G]	-0.582 ± 0.048
RGITCLDDENEKVNMYCVSDDQLICALCKLVGRHRDHQVASLNDR [H8D]	-0.335 ± 0.1
RGITCLDEENEKVNMYCVSDDQLICALCKLVGRHRDHQVASLNDR [H8E]	-0.47 ± 0.061
RGITCLDTENEKVNMYCVSDDQLICALCKLVGRHRDHQVASLNDR [H8T]	-0.555 ± 0.06
RGITCLDMENEKVNMYCVSDDQLICALCKLVGRHRDHQVASLNDR [H8M]	-0.588 ± 0.088
RGITCLDKENEKVNMYCVSDDQLICALCKLVGRHRDHQVASLNDR [H8K]	-0.533 ± 0.093
RGITCLDRENEKVNMYCVSDDQLICALCKLVGRHRDHQVASLNDR [H8R]	-0.655 ± 0.053
RGITCLDWENEKVNMYCVSDDQLICALCKLVGRHRDHQVASLNDR [H8W]	-0.97 ± 0.069
RGITCLDYENEKVNMYCVSDDQLICALCKLVGRHRDHQVASLNDR [H8Y]	-0.831 ± 0.16
RGITCLDIENEKVNMYCVSDDQLICALCKLVGRHRDHQVASLNDR [H8I]	-0.976 ± 0.29
RGITCLDFENEKVNMYCVSDDQLICALCKLVGRHRDHQVASLNDR [H8F]	-0.808 ± 0.38
RGITCLDCENEKVNMYCVSDDQLICALCKLVGRHRDHQVASLNDR [H8C]	-0.408 ± 0.089

From the Human Domainome abundance scans (Beltran et al. 2025)
